According to patent publication US11766414B2, “Compositions, delivery systems, and methods useful in tumor therapy” (Indi Molecular, Inc., priority 2020, dated 2023):
Starred links: 1 amine or outer side, 2 acyl side, 3 side chain; linkers in the order of their positions; H or OH if unused. Positions of bridges follow the written chain, without caps; N, C: chain ends. Non-standard residues stand in square brackets, D forms with d. Residues, ends and D or L forms follow the SMILES beside them. Triazole bridges read from a SMILES are 1,4-linked. *: point of attachment. DOTA = O=C(O)CN1CCN(CC(=O)O)CCN(CC(=O)*)CCN(CC(=O)O)CC1; Pteroyl = Nc1nc2ncc(CNc3ccc(C(=O)*)cc3)nc2c(=O)[nH]1; Biotin = O=C1N[C@H]2[C@H](CS[C@H]2CCCCC(=O)*)N1; Butanoyl(4-(4-MePh)) = Cc1ccc(CCCC(=O)*)cc1; Lys(N3) = [N-]=[N+]=NCCCC[C@H](N)C(=O)O; γGlu = O=C(O)[C@H](CCC(=O)[*:2])N[*:1]; AEEEA = NCCOCCOCCOCC(=O)O; Pra = C#CC[C@H](N)C(=O)O

Columns and labels:
OVCAR3 xenograft [1] = experiment: 177Lu FOLR1 radioligand therapy of OVCAR3 xenografts; assay type: in vivo, mouse; details: single dose
[2] = Maximum tolerated dose (MTD) tolerability study
Method: In order to establish a maximum tolerated dose (MTD), a tolerability study was undertaken testing increasing amounts of the 177-Lu heterobiligand 7327 (folate-hshta-Gly-Phe-Lys(DOTA)). Animals were monitored for signs of toxicity and weighed twice weekly. […] The second and third doses were administered 21 days following the previous dose.
Efforts were undertaken to evaluate 177-Lu 6305 (folate-hshta-Lys(MPBA)-Gly-Phe-Lys(DOTA)), a compound with a brush border cleavable linker in addition to an albumin binder. […] Two separate MTD experiments were undertaken. […] A second experiment interrogated lower doses.
In order to establish a MTD, dose range finding studies were undertaken testing increasing amounts of Indi ^177Lu-7327 in healthy, non-tumor bearing female NSG mice using IV administration (FIGS. 34 and 35). Mouse body weight and behavior were monitored. […] The second and third doses were administered 21 days following the previous dose.

[3] = Gamma counting of tissue radioactivity; assay type: in vivo, mouse; details: for kidney radioactivity / liver radioactivity / tumor radioactivity: Day 28 post-injection
Source text: 7 days after Lu177-#6305 injection, the 29.6 MBq group lost 20% body weight. These mice were sacrificed. Tissues and plasma were collected for evaluation of radioactivity by gamma counting. The toxicity may have resulted from its accumulation in the kidneys and liver (FIG. 28). At study endpoint (Day 28 post-injection), plasma, tumors, kidneys, lungs, hearts, livers, and muscles from 9.25 MBq and 14.8 MBq treatment groups were collected for evaluation of radioactivity by gamma counting (FIG. 29).

OVCAR3 xenograft [4] = experiment: 177Lu FOLR1 radioligand therapy of OVCAR3 xenografts; assay type: in vivo, mouse; details: for tumor response: single dose at 18.5 MBq/nmol, tumor size (avg.) 148 mm^3
Method: Water and food were provided ad libitum. […] Tumor growth was monitored by caliper measurements.
OVCAR3 tumor bearing mice were used to study FOLR1-directed radioligand therapy (RLT) for treatment of ovarian cancer. Animals were administered a single dose of heterobiligand (vehicle control) or 111, 37, 18.5, 9.25, or 3.7 MBq [^177Lu]DOTA-labeled heterobiligand. Mice received the dose intravenously (i.v.) via the tail vein. To monitor the effect of the RLT, tumor size measurements were taken twice weekly and body weights were measured.
Single dose treatments at 18.5 MBq/nmol specific activity. OVCAR3 mouse model was used. 10^7 cell tumors were implanted in the mice one month before administration of ^177Lu-#6305. Five mice each were administered Cold #6305, 9.25 MBq Lu177-#6305, and 14.8 MBq Lu177-#6305, and two mice were administered 29.6 MBq Lu177-#6305. Tumor growth and body weight were then monitored.
Female NSG mice were implanted subcutaneously with OVCAR3 cells. Once tumors reached volumes of 200 mm^3, the animals were treated with 177-Lu 7327. Three treatment arms of 9.25 MBq, 14.8 MBq, and 29.6 MBq were studied.

[5] = test system: OVCAR3 FOLR1+ cells (PC-3 FOLR1− cells as negative line); experiment: Flow cytometry binding to FOLR1 (+) and FOLR1 (−) cell lines; assay type: cell-based, human; details: OVCAR3 vs PC-3, flow cytometry
Method: Both the kyeet (SEQ ID NO:9) and hshta (SEQ ID NO:6)-derived biligands were tested by flow cytometry for binding to FOLR1 (+) and FOLR1 (−) cell lines (FIGS. 6 and 7). The human ovarian adenocarcinoma-derived cell line OVCAR3 has robust FOLR1 expression and was selected as the FOLR1 (+) cell line. The human prostate adenocarcinoma-derived cell line PC-3 was selected as a FOLR1 (−) cell line.

FOLR1 = FOLR1 (Homo sapiens, UniProt P15328); experiment: ELISA assay of FOLR1 binding; details: read-out: EC50 (ELISA, FOLR1)
Source text: FIG. 5 is a diagram of ELISA assay of FOLR1 binding of heterobiligands.

[6] = 29.6 MBq group, Day 7 post-injection

Sequence of FOLR1 (P15328 25-234): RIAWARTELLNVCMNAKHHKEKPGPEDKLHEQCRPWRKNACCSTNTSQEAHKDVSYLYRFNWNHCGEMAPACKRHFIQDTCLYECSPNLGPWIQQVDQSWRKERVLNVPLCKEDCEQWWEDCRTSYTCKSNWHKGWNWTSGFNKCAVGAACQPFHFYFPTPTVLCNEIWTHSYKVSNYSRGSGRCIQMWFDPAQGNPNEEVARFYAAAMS

With `Cc1ccc(CCCC(=O)NCCCC[C@H](NC(=O)[C@@H]2CCCCn3cc(nn3)C[C@H](NC(=O)CC[C@H](NC(=O)c3ccc(NCc4cnc5nc(N)[nH]c(=O)c5n4)cc3)C(=O)O)C(=O)N[C@H](Cc3c[nH]cn3)C(=O)N[C@H](CO)C(=O)N[C@H](Cc3c[nH]cn3)C(=O)N[C@H]([C@H](C)O)C(=O)N[C@H](C)C(=O)N2)C(=O)NCC(=O)N[C@@H](Cc2ccccc2)C(=O)N[C@@H](CCCCNC(=O)CN2CCN(CC(=O)O)CCN(CC(=O)O)CCN(CC(=O)O)CC2)C(=O)O)cc1` (177Lu complex, metal not drawn) [Lu177-#6305] ({Pteroyl-γGlu}-[Pra][dH][dS][dH][dT][dA][Lys(N3)]K(Butanoyl(4-(4-MePh)))GFK(DOTA)-OH; triazole 1-7) the OVCAR3 tumor growth (OVCAR3 xenograft [1]; 14.8 MBq) was “significantly slowed down OVCAR3 tumor growth”, the body weight change (OVCAR3 xenograft [1]; 29.6 MBq) was “substantial body weight decrease” and the “tolerability of second dose” value ([2]; 14.8-22.2 MBq, second dose administered 21 days) was “not tolerated”. The “tolerability of second dose” value ([2]; 29.6-185 MBq, second dose 7 days after the first) was “not tolerated”, the body weight ([2]; 29.6 MBq, 37 MBq, 111 MBq, and 185 MBq, first dose) was “began to experience weight loss after the first dose” and the body weight ([2]; single dose of 14.8 MBq, 18.5 MBq, and 22.2 MBq) was “only minimal loss in body weight that quickly stabilized”. It also gave a kidney radioactivity ([3]; 9.25 MBq group) of 414 CPM/g, a liver radioactivity ([3]; 9.25 MBq group) of 685 CPM/g and a tumor radioactivity ([3]; 9.25 MBq group) of 33 CPM/g. The liver/kidney ratio ([3]; 14.8 MBq group on Day 28) was 1.94, the kidney radioactivity ([3]; 14.8 MBq group) was 653 CPM/g and the liver radioactivity ([3]; 14.8 MBq group) was 1,264 CPM/g. For the same compound, the tumor radioactivity ([3]; 14.8 MBq group) was 60 CPM/g, the liver/kidney ratio ([3]; 29.6 MBq group on Day 7) was 0.27 and the “radioactivity in the kidney” value [3, 6] was 394,834 CPM/g. The “radioactivity in the liver” value [3, 6] was 107,374 CPM/g, the “radioactivity in the tumor” value [3, 6] was 42,674 CPM/g and the body weight change (OVCAR3 xenograft [4]; 9.25 MBq and 14.8 MBq, single dose) was “No significant body weight change”. For the same compound, the tumor response (OVCAR3 xenograft [4]; 9.25 MBq) was “nonresponse”, the tumor response (OVCAR3 xenograft [4]; 14.8 MBq) was “partial response” and the body weight lost (OVCAR3 xenograft [4]; 29.6 MBq group, 7 days after injection) was 20%.

For `C[C@H](O)[C@H]1NC(=O)[C@@H](Cc2ccc(O)cc2)NC(=O)[C@@H](CCCNC(=N)N)NC(=O)[C@@H](CCC(=O)O)NC(=O)[C@@H](CC(=O)O)NC(=O)[C@@H](NC(=O)[C@H](Cc2cn(CCOCCOCCOCCNC(=O)CC[C@H](NC(=O)c3ccc(NCc4cnc5nc(N)[nH]c(=O)c5n4)cc3)C(=O)O)nn2)NC(=O)CCOCCOCCOCCOCCOCCOCCOCCOCCOCCOCCNC(=O)CCOCCOCCOCCOCCOCCOCCOCCOCCOCCOCCNC(=O)CCCC[C@@H]2SC[C@@H]3NC(=O)N[C@@H]32)Cc2cn(nn2)CCCC[C@@H](C(N)=O)NC1=O` [Folate-deryt], the “binding selectivity for FOLR1 (+) cells over FOLR1 (−) cells” value (“binding selectivity for FOLR1 (+) cells” below) [5] was “excellent selectivity” and the EC50 (FOLR1) was 0.28 nM.

For `C[C@H](O)[C@H]1NC(=O)[C@@H](Cc2c[nH]cn2)NC(=O)[C@@H](CO)NC(=O)[C@@H](Cc2c[nH]cn2)NC(=O)[C@@H](NC(=O)[C@H](Cc2cn(CCOCCOCCOCCNC(=O)CC[C@H](NC(=O)c3ccc(NCc4cnc5nc(N)[nH]c(=O)c5n4)cc3)C(=O)O)nn2)NC(=O)CCOCCOCCOCCOCCOCCOCCOCCOCCOCCOCCNC(=O)CCOCCOCCOCCOCCOCCOCCOCCOCCOCCOCCNC(=O)CCCC[C@@H]2SC[C@@H]3NC(=O)N[C@@H]32)Cc2cn(nn2)CCCC[C@@H](C(N)=O)NC(=O)[C@@H](C)NC1=O` [Tz heterobiligand], the “binding selectivity for FOLR1 (+) cells” value [5] was “high selectivity” and the EC50 (FOLR1) was 0.107 nM.

With `C[C@H](O)[C@H]1NC(=O)[C@@H](CCC(=O)O)NC(=O)[C@@H](CCC(=O)O)NC(=O)[C@@H](Cc2ccc(O)cc2)NC(=O)[C@@H](CCCCN)NC(=O)[C@@H](NC(=O)COCCOCCOCCNC(=O)CCCC[C@@H]2SC[C@@H]3NC(=O)N[C@@H]32)Cc2cn(nn2)CCCC[C@@H](C(N)=O)NC1=O` [kyeet] ({Biotin-AEEEA}-[Pra][dK][dY][dE][dE][dT][Lys(N3)]-NH2; triazole 1-7) the “binding selectivity for FOLR1 (+) cells” value [5] was “slight binding selectivity”.
